Reference: article PMC7336285, “Metabolite‐based genome‐wide association study enables dissection of the flavonoid decoration pathway of wheat kernels” (Plant Biotechnology Journal, 2020)

B1: TraesCS1A01G347100 (Triticum aestivum) (protein)
chain: MEAANPNPTVVLHACLGVGHLIPMVELAKLFLLRGVPVVIAVPTPPASTADFFSSTASAVAGLEAANPSIAFHHLPPPDYPDPDPHPFLQMLDLLRLTVPSLLAFLRSLPSVAALVLDLFCIDSLDAAAQTGVPAYIYYTSSAGDLAAFLHLPHHFATTEGSFRDMGKAPLRFPGVPPIPASDMPHTVMDRADPICTIRIGHYGRIPEARGVLVNTYEWLEARAVGALREGVCVPGRPTPPVYCIGPLIVSDSAAAQGERHACLSWLDAQPERSVVFLCFGSMGAVSAAELKEIAHGLENSGHRFLWVVRTPPADPAKFFLPRPEPDLDALLPEGFTERTRDRGMVLKMWAPQVEVLRHAATGAFVTHCGWNSVLEAASAGVPMLCWPQYAEQRLNKEFVVDEMKVGVVMEGYDEELVRAEEVERKVRLVMESEEGEKLRERLALAKEKAAEAMADGGPSRMALAEFLKHSKLST
notes: GST-tagged (pGEX-6p-1), E. coli BL21(DE3), glutathione Sepharose purified, tag cleavage not mentioned
B2: TraesCS2B01G472400 (Triticum aestivum) (protein)
chain: MARLLRTSLVAPSPAGAALHERSLPLTYLDALWLHATPVERVFFYPNATSDVLSNLTDSLSNALAAFYPLAGRLRLTPGAHNRYELHCQPGDGVTFTVAEYHHVGFDELATDEPTEVAKIVPLVPPLPEGGAVLAVQATVLRGGLAIGVTVHHAACDGVSSTHFLRTWAWAAAACSGASAPVPPFVDRSIIRARDDLYDAFTAPRLSSNDDDDGGKPPDSPVVQQLLATFTLSKEHLQSIKEAVAGEAERRGVPLPRATSIIAAFGFIWQCYVRAKPGTDGKAGSSCGGRAYFLLPADHRTRLEPPVPDEYLGNCLGPCIALAPRRDVAAAGADGLFTACAAIATAIDGVVRSGPGCWDGWMERIIEAYTAGDLPLTVAGSPRFRVYDTDFGFGRPAKVDVVSVARTGAMSVAEARSGGGGVEVGISLSAGAMERFNECFADAIASLSS
notes: as for B1

Columns and labels:
[1] = substrate: COc1cc(-c2cc(=O)c3c(O)cc(O)cc3o2)cc(OC)c1O; test: LC-MS product assay, Michaelis-Menten fit; assay type: biochemical, Triticum aestivum; settings: formation of tricin 4′-O-glucoside (product postulated), UDP-glucose 0.75 mM, MgCl2 10 mM, Tris-HCl pH 7.4, 37 °C
[2] = substrate: COc1cc(-c2cc(=O)c3c(O)cc(O[C@@H]4O[C@H](CO)[C@@H](O)[C@H](O)[C@H]4O)cc3o2)cc(OC)c1O; test: LC-MS product assay, Michaelis-Menten fit; assay type: biochemical, Triticum aestivum; settings: formation of tricin 7-O-malonylglucoside, malonyl-CoA 0.03 mM, Tris-HCl pH 7.4, 37 °C

Protein | Km [1] [µM] | Km [2] [µM] | kcat [2] [s⁻¹]
B1 | 6.49 ± 0.71 | – | –
B2 | – | 20.53 ± 1.02 | 81.72 ± 6.11
